# Data as given in PMC7948737, “Structures and mechanism of human glycosyltransferase β1,3-N-acetylglucosaminyltransferase 2 (B3GNT2), an important player in immune homeostasis” (The Journal of Biological Chemistry, 2020).
# T1: β1,3-N-acetylglucosaminyltransferase 2 (B3GNT2) (Homo sapiens, UniProt Q9NY97)
# T1 construct: luminal domain, Lys45-Cys397 (crystal); Lys29-Cys397 (kinetics)
# T1 sequence (Q9NY97 29-397): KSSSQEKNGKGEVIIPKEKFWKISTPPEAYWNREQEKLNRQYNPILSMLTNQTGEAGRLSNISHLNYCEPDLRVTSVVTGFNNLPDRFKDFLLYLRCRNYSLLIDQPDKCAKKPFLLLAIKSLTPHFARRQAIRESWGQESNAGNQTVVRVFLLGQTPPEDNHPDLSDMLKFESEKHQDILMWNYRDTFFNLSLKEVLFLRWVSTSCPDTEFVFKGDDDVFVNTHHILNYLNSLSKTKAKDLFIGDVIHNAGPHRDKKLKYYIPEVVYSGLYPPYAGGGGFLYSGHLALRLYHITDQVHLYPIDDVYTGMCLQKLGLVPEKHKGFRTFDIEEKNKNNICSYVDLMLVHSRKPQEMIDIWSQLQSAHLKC
# T2: β1,3-N-acetylglucosaminyltransferase 2 (B3GNT2) (Homo sapiens, UniProt Q9NY97)
# T2 construct: luminal domain, Lys45-Cys397 (crystal)
# T2 sequence (Q9NY97 45-397): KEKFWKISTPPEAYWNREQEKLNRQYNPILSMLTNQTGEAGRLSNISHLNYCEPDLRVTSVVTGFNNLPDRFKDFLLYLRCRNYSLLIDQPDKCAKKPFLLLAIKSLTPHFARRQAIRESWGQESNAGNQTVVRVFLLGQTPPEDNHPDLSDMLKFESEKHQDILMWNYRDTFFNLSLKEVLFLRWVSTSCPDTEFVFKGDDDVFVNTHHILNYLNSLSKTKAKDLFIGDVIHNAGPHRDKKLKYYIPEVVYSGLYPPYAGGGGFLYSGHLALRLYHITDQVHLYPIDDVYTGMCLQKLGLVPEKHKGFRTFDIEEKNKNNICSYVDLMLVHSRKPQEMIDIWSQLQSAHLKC
# B1: human B3GNT2 luminal domain (Ser31–Cys397) (domain or fragment, UniProt Q9NY97 31-397, looked up)
# chain: SSQEKNGKGEVIIPKEKFWKISTPPEAYWNREQEKLNRQYNPILSMLTNQTGEAGRLSNISHLNYCEPDLRVTSVVTGFNNLPDRFKDFLLYLRCRNYSLLIDQPDKCAKKPFLLLAIKSLTPHFARRQAIRESWGQESNAGNQTVVRVFLLGQTPPEDNHPDLSDMLKFESEKHQDILMWNYRDTFFNLSLKEVLFLRWVSTSCPDTEFVFKGDDDVFVNTHHILNYLNSLSKTKAKDLFIGDVIHNAGPHRDKKLKYYIPEVVYSGLYPPYAGGGGFLYSGHLALRLYHITDQVHLYPIDDVYTGMCLQKLGLVPEKHKGFRTFDIEEKNKNNICSYVDLMLVHSRKPQEMIDIWSQLQSAHLKC
# modifications: N-glycans assigned at Asn127, Asn173 and Asn219
# notes: human B3GNT2 (β-1,3-N-acetylglucosaminyltransferase 2), UniProt Q9NY97, luminal domain, residues Ser31–Cys397; Expressed with an N-terminal gp64 secretion signal peptide; 8×His tag cleaved by TEV protease; Used for the iodide derivative structure (SAD phasing, 2.50 Å); also called B3GNT2 Ser31-Cys397; iodide derivative; source: sf9 cells (baculovirus), secreted into medium, purified (Ni-NTA, size …)
# B2: human B3GNT2 luminal domain (Lys45–Cys397) (domain or fragment, UniProt Q9NY97 45-397, looked up)
# chain: KEKFWKISTPPEAYWNREQEKLNRQYNPILSMLTNQTGEAGRLSNISHLNYCEPDLRVTSVVTGFNNLPDRFKDFLLYLRCRNYSLLIDQPDKCAKKPFLLLAIKSLTPHFARRQAIRESWGQESNAGNQTVVRVFLLGQTPPEDNHPDLSDMLKFESEKHQDILMWNYRDTFFNLSLKEVLFLRWVSTSCPDTEFVFKGDDDVFVNTHHILNYLNSLSKTKAKDLFIGDVIHNAGPHRDKKLKYYIPEVVYSGLYPPYAGGGGFLYSGHLALRLYHITDQVHLYPIDDVYTGMCLQKLGLVPEKHKGFRTFDIEEKNKNNICSYVDLMLVHSRKPQEMIDIWSQLQSAHLKC
# modifications: N-glycans assigned at Asn127, Asn173 and Asn219
# notes: human B3GNT2 (β-1,3-N-acetylglucosaminyltransferase 2), UniProt Q9NY97, luminal domain, residues Lys45–Cys397; Expressed with an N-terminal gp64 secretion signal peptide; 8×His tag cleaved by TEV protease; Used for all structures except the iodide derivative; also called B3GNT2 Lys45-Cys397; B3GNT2_apo; source: sf9 cells (baculovirus), secreted into medium, purified (Ni-NTA, size exclusion …)
# Tests used:
# [1] = molecular target: human B3GNT2 luminal domain (construct of the analytical size exclusion chromatography, limits not told) (human); assay: SEC; analytical size exclusion chromatography, Superdex 200 10/300, 20 mM Hepes-NaOH pH 7.5 with 150 mM NaCl (buffer C) or 250 mM NaCl, 50 mM imidazole, 1 mM MgCl2, 0.5 mM DTT (buffer D); Bio-Rad molecular weight standards
# [2] = molecular target: T1, β1,3-N-acetylglucosaminyltransferase 2 (B3GNT2); assay: crystal structure ([…] Å, soak); binary-complex dissociation constant from UDP-Glo kinetics; format: biochemical
# [3] = molecular target: T2, β1,3-N-acetylglucosaminyltransferase 2 (B3GNT2); assay: crystal structure ([…] Å, soak) and SPR steady-state affinity; format: binding
# [4] = molecular target: T2, β1,3-N-acetylglucosaminyltransferase 2 (B3GNT2); assay: crystal structure ([…] Å) and SPR steady-state affinity; format: binding
# [5] = molecular target: the molecule itself; assay: crystal structure; sitting/hanging-drop vapor diffusion at 4 °C, 24% PEG1500, 20% glycerol; apo, soaked or co-crystallised with UDP, UDP-GlcNAc, LacNAc; dimer related by crystallographic symmetry
molecule,measurement,setting,value
"human B3GNT2 luminal domain (construct of the analytical size exclusion chromatography, limits not told) (domain or fragment)",stoichiometry N,[1],2
CC(=O)N[C@H]1C(O)O[C@H](CO)[C@@H](O[C@@H]2O[C@H](CO)[C@H](O)[C@H](O)[C@H]2O)[C@@H]1O (stereo partly drawn) [LacNAc],Kd,[2],8990 ± 1750 µM
CC(=O)N[C@H]1[C@@H](OP(=O)(O)OP(=O)(O)OC[C@H]2O[C@@H](n3ccc(=O)[nH]c3=O)[C@H](O)[C@@H]2O)O[C@H](CO)[C@@H](O)[C@@H]1O [UDP-GlcNAc],Kd,[3],~140 µM
O=c1ccn([C@@H]2O[C@H](COP(=O)(O)OP(=O)(O)O)[C@@H](O)[C@H]2O)c(=O)[nH]1 [UDP],Kd,[4],~260 µM
B1,binding result,[5],binds
B2,binding result,[5],binds
